T1: HLA-DRB1*1301 (human)
T1 chain 1: not shown
T1 chain 2: not shown

B1: p39 (peptide)
chain: HAVSDHEATLRCWAL
B2: p13* (peptide)
chain: HRVDLGTLRGYYNQS
B3: p23 (peptide)
chain: HQYAYDGKDYIALKE
B4: p40 (peptide)
chain: RCWALSFYPAEITLT
B5: p5 (peptide)
chain: IAVGYVDDTQFVRFD
B6: p1* (peptide)
chain: HSMRYFFTSVSRPGR
B7: p25 (peptide)
chain: KDYIALKEDLRSWTA
B8: p6 (peptide)
chain: VGYVDDTQFVRFDSD
B9: p8* (peptide)
chain: VRFDSDAASQRMEPR
B10: p50* (peptide)
chain: KPLTLRWEPSSQPTI
B11: p3 (peptide)
chain: TSVSRPGRGEPRFIA
B12: p12 (peptide)
chain: RKVKAHSQTHRVDLG
B13: p14* (peptide)
chain: VDLGTLRGYYNQSEA
B14: p42 (peptide)
chain: AEITLTWQRDGEDQT
B15: p9 (peptide)
chain: SQRMEPRAPWIEQEGP
B16: p11 (peptide)
chain: PEYWDGETRKVKAHS
B17: p10 (peptide)
chain: APWIEQEGPEYWDGE
B18: p19 (peptide)
chain: CDVGSDWRFLRGYHQ
B19: p4 (peptide)
chain: PRFIAVGYVDDTQFV
B20: p15* (peptide)
chain: GTLRGYYNQSEAGSH
B21: p2* (peptide)
chain: MRYFFTSVSRPGRGE
B22: p22 (peptide)
chain: RGYHQYAYDGKDYIA
B23: p16* (peptide)
chain: RGYYNQSEAGSHTVQ
B24: reference peptide B1 21-36 (peptide)
peptide: TERVRLVTRHIYNREE
modifications: not checked

What follows are binders tested against HLA-DRB4*0101 (human) (assay: competition). Conditions: modification not given.

IC50 [µM] | Binder
0.008 | B1

The binders below were run against HLA-DRB1*0101 (human) (assay: competition binding). Conditions: modification not given.

IC50 [µM] | Binder
0.089 | B2
0.406 | B3
0.026 | B4
2.77 | B5
0.003 | B6
0.01 | B7
27.7 | B8
14 | B9
0.458 | B10
0.648 | B11
21.6 | B12
0.209 | B13
1.34 | B14
10.8 | B15
4.95 | B16
13 | B17
0.009 | B18
0.748 | B19
0.406 | B20
0.002 | B21
9.49 | B22

The binders below were run against HLA-DRB1*0301 (human) (assay: competition binding). Conditions: modification not given.

IC50 [µM] | Binder
> 100 | B2
52 | B3
5.23 | B4
0.316 | B5
7.35 | B6
1.63 | B7
0.6 | B8
1.4 | B9
> 100 | B10
> 100 | B23
> 100 | B11
> 100 | B12
> 100 | B13
> 100 | B14
> 100 | B15
> 100 | B16
49.7 | B17
1.5 | B18
12 | B19
> 100 | B20
2.84 | B21
8.48 | B22

What follows are binders tested against HLA-DRB1*0401 (human) (assay: competition binding). Conditions: modification not given.

IC50 [µM] | Binder
4.04 | B2
17.7 | B3
2 | B4
31 | B5
0.013 | B6
0.325 | B7
97.5 | B8
3.39 | B9
0.134 | B10
0.494 | B23
5.48 | B11
100 | B12
8.83 | B13
> 100 | B14
> 100 | B15
63.2 | B16
> 100 | B17
0.543 | B18
> 100 | B19
1.82 | B20
81.5 | B22

What follows are binders tested against HLA-DRB1*0701 (human) (assay: competition binding). Conditions: modification not given.

IC50 [µM] | Binder
36.7 | B2
37.8 | B3
0.045 | B4
3.1 | B5
0.038 | B6
2.96 | B7
3.16 | B8
4.65 | B9
0.097 | B10
0.13 | B23
6.93 | B11
0.486 | B12
> 100 | B13
> 100 | B14
83.7 | B15
62.9 | B16
79.4 | B17
0.341 | B18
0.85 | B19
2.96 | B20
0.045 | B21
33.4 | B22

What follows are binders tested against HLA-DRB1*1101 (human) (assay: competition binding). Conditions: modification not given.

IC50 [µM] | Binder
8.06 | B2
0.684 | B3
40.6 | B4
9.22 | B5
0.002 | B6
0.042 | B7
2.8 | B8
58.3 | B9
11.4 | B10
3.18 | B23
1.02 | B11
> 100 | B12
1.55 | B13
6 | B14
15.5 | B15
0.418 | B16
58.1 | B17
0.029 | B18
5.48 | B19
1.86 | B20
0.003 | B21
1.75 | B22

What follows are binders tested against HLA-DRB1*1301 (human) (assay: competition binding). Conditions: modification not given.

IC50 [µM] | Binder
> 100 | B2
> 100 | B3
> 100 | B4
> 100 | B5
0.365 | B6
2.74 | B7
> 100 | B8
> 100 | B9
> 100 | B10
> 100 | B23
> 100 | B11
0.385 | B12
> 100 | B13
> 100 | B14
60 | B15
> 100 | B16
> 100 | B17
100 | B18
> 100 | B19
> 100 | B20
0.399 | B21
> 100 | B22

The binders below were run against HLA-DRB1*1501 (human) (assay: competition binding). Conditions: modification not given.

IC50 [µM] | Binder
0.088 | B2
> 100 | B3
0.028 | B4
2.97 | B5
0.509 | B6
0.125 | B7
1.78 | B8
> 100 | B9
5.61 | B10
> 100 | B23
18.7 | B11
> 100 | B12
0.082 | B13
18.8 | B14
33.2 | B15
> 100 | B16
51.2 | B17
0.598 | B18
0.033 | B20
1.17 | B21
> 100 | B22

The binders below were run against HLA-DRB3*0101 (human) (assay: competition binding). Conditions: modification not given.

IC50 [µM] | Binder
> 100 | B2
2.29 | B3
3.97 | B4
> 100 | B6
85.5 | B7
0.245 | B8
2.68 | B9
3.55 | B10
> 100 | B23
> 100 | B11
> 100 | B12
> 100 | B13
30 | B14
> 100 | B15
> 100 | B16
75 | B17
> 100 | B18
0.196 | B19
> 100 | B20
> 100 | B21
1.28 | B22

What follows are binders tested against HLA-DRB4*0101 (human) (assay: competition binding). Conditions: modification not given.

IC50 [µM] | Binder
67.1 | B2
> 100 | B3
4.52 | B4
> 100 | B5
0.193 | B6
27.4 | B7
9 | B8
> 100 | B9
4.58 | B10
> 100 | B23
> 100 | B11
2.97 | B12
> 100 | B13
4.58 | B14
> 100 | B15
> 100 | B16
> 100 | B17
51.4 | B18
45.7 | B19
> 100 | B20
> 100 | B21
> 100 | B22

These binders were tested against HLA-DRB5*0101 (human) (assay: competition binding). Conditions: modification not given.

IC50 [µM] | Binder
12.4 | B2
1.5 | B3
0.812 | B4
0.798 | B5
0.004 | B6
0.052 | B7
9.19 | B8
3.58 | B9
45.8 | B10
0.175 | B23
> 100 | B11
7.98 | B12
11 | B13
4.69 | B14
67.1 | B15
24.4 | B16
73.5 | B17
0.033 | B18
0.755 | B19
0.612 | B20
0.004 | B21
40 | B22

Target: T1, HLA-DRB1*1301 (human)
Test: competition assay on purified, immobilised HLA-DR against the biotinylated reference peptide, pH 4.5
Conditions: not given

IC50 [µM] | Binder
0.131 | B24

Source: US20110038881A1, “PROGNOSTIC ASSAY FOR DETERMINING T CELL RESPONSE TO HLA ANTIGENS AND USE THEREOF IN FIELD OF TISSUE TRANSPLANTATION” (priority 2007, published 2011)
